Experiment [1] deals with mouse NKG2A on cells (mouse). Description: binding to mNKG2A-expressing CHO cells.
Experiment [2] has as its target mouse NKG2A on cells (mouse). Description: blockade of Qa-1b tetramer binding to mNKG2A-expressing CHO cells.
For experiment [3], the target named is human NKG2A-CD94 heterodimer (extracellular domains) (human) (UniProt Q13241). Description: SPR Biacore T200, 37 °C, antibody captured by anti-human Fc on C1 chip, hNKG2A-hCD94 as analyte. Background: Surface plasmon resonance follows binding to a sensor surface in real time, without labels.
In experiment [4] the target is cynomolgus monkey NKG2C on CHO cells (cynomolgus monkey). Description: cell binding on CHO-cyno NKG2C cells.

human NKG2A-CD94 heterodimer (extracellular domains) (human), sequence (chain, as listed by the source, chain 1 of 2): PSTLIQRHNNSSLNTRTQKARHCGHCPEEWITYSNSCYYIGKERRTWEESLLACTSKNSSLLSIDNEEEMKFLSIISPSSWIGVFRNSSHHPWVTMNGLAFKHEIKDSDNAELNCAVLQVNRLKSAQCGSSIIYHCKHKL
human NKG2A-CD94 heterodimer (extracellular domains) (human), sequence (Q13241 32-179, chain 2 of 2): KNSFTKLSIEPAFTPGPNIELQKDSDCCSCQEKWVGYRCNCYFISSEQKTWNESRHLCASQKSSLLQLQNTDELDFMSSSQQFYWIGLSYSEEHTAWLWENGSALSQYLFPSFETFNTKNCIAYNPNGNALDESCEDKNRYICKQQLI

B1: NKG2A.3 antibody (anti-mNKG2A surrogate, mIgG1-D265A) (antibody, V domains shown)
VH: QVQLKQSGAELVKPGASVKISCKTSGYTFTDGYMHWVEQNPGQGLEWIGRIDPDSGYTMYNQKFQDKATLTRDKSSSTVYMELRSLTSEDSAVYYCAINYGEYWYFDFWGQGTQVTVSS
VL: DIVMTQSPSSLAVSAGDKVTINCKSSQTLFSGRYNYLAWYQQKTGQAPKLLIYYTSTRHTGVPGRFIGSGSGTDFTLTINNLQTEDLGNYYCQQHYSTPYTFGAGTNLEIRR
For the molecule B1, the EC50 – broadly, the concentration giving half of the maximal effect – in experiment [1] was determined as 300 pM. Besides, the half-inhibitory concentration (IC50) (usually the concentration that inhibits the measured activity by half) in experiment [2] was 400 pM.

B2: Z270 (antibody, from another filing, V domains shown)
VH: QVQLQQPGAELVRPGASVKLSCKASGYTFTSYWMNWVKQRPEQGLQWIGRIDPYDSETHYSQKFKDKAILTVDKSSSTAYMRLSSLTSEDSAVYYCARGGYDFDVGTLYWFFDVWGAGTTVTVS
VL: DIQMTQSPASLSASVGETVTITCRASENIYSYLAWYQQKQGKSPQFLVYNAKTLAEGVPSRFSGSGSGTQFSLKINSLQPEDFGSYYCQHHYGTPRTFGGGTKLEIK
In the case of B2, in experiment [3], the Half-life of Antibody/Analyte Complex fell in the range of 3 to 4 s; the Kd (in general, a measure of binding affinity in units of concentration) stood at 25000 pM; the koff (commonly the rate constant with which the complex falls apart) amounted to 0.2 s⁻¹; the kon (in general, the rate constant with which the complex forms) was 8e+06 M⁻¹ s⁻¹.

B3: NKG2A.9 antibody (antibody, human IgG1, kappa, V domains shown)
VH: EVQLVESGGGLVKPGGSLRLSCAASGFTFSSHSMNWVRQAPGKGLEWVSAISSSSSYIYYADSVKGRFTISRDNAKNSLYLQMNSLRAEDTAVYYCAREEWGLPFDYWGQGTLVTVSS
VL: AIQLTQSPSSLSASVGDRVTITCRASQGISSALAWYQQKPGKAPKLLIYDASSLKSGVPSRFSGSGSGTDFTLTISSLQPEDFATYYCQQFNSYPLTFGQGTRLEIKR
As for B3, the EC50 in experiment [4] was found to be 800 pM.
